Biological target: GAPDH (purified recombinant, no tag named) (UniProt P04406)
Assay: ELISA

Chain of NleB-FLAG (purified) (enzyme) (Q5XMK8 whole entry): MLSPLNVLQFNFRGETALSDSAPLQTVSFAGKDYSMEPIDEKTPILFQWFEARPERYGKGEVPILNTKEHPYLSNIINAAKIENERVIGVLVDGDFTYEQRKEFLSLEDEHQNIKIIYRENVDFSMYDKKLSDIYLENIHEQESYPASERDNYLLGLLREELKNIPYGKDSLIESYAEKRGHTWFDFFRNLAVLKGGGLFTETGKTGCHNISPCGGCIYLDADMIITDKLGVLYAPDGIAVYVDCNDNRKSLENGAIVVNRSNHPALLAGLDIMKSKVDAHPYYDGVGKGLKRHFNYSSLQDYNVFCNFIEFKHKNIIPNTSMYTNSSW

NleB-FLAG (purified) (enzyme)
Kd: 32 µM

Source: paper PMC3553500
